Results published in patent US20200283507A1 (US Dept. of Health and Human Services, published 2020).
No end group written: not given here.

Key:
[1] = target: T1, Toronto VP1 peptide 507-523 (NoV Toronto strain, also: biotinylated (position not given here)); assay: ELISA on biotinylated peptide
T1 construct: 17-mer of the P domain peptide library
T1 peptide: TVPPNGYFRFESWVNPF
Method: (§1) For this assay, a peptidic library of 67 peptides corresponding to the P domain of the VP1 amino acid sequence from NoV Toronto strain was synthetized. The peptides were 17 amino acids long, with 5 amino acids overlapping with the previous and the next peptide of the sequence. Neutravidin coated plates (PIERCE®) were used for this assay. The plates were coated with each biotinylated peptide in duplicates (2 μl of peptide/100 μl of PBS 0.1% BSA per well) overnight at 4° C. Then, after washing the plates, 100 ng/well of 7.5 VHH were added and the plates were incubated for 2 hours at room temperature. The plates were washed and incubated with rabbit anti-VHH serum (1/8,000) and HRP-conjugated goat anti-rabbit immunoglobulin G (1:2,000) (KPL). The signal was developed with ABTS/H₂O₂.

[2] = target: T2, Toronto VP1 peptide 522-538 (NoV Toronto strain, also: biotinylated (position not given here)); assay: ELISA on biotinylated peptide
T2 construct: 17-mer of the P domain peptide library
T2 peptide: PFYTLAPMGTGNGRRRI
Method: as §1

[3] = target: T3, Toronto VP1 peptide 517-533 (NoV Toronto strain, also: biotinylated (position not given here)); assay: ELISA on biotinylated peptide
T3 construct: 17-mer of the P domain peptide library
T3 peptide: ESWVNPFYTLAPMGTGN
Method: as §1

[4] = target: T4, Toronto VP1 peptide 512-528 (NoV Toronto strain, also: biotinylated (position not given here)); assay: ELISA on biotinylated peptide
T4 construct: 17-mer of the P domain peptide library, captured on neutravidin plates
T4 peptide: GYFRFESWVNPFYTLAP
Method: as §1

[5] = target: T5, Hu/NoV/GII.4/MD145-12/1997/U.S. VLP (human norovirus GII.4); assay: VLP ELISA
T5 construct: mature; baculovirus VLP; VP2 may be present

[6] = target: T6, Hu/NoV/GII.2/Henryton/1971/U.S. VLP (human norovirus GII.2); assay: VLP ELISA
T6 construct: mature; baculovirus VLP; VP2 may be present

[7] = target: T7, Hu/NoV/GII.4/CHDC4871/1977/U.S. VLP (human norovirus GII.4); assay: VLP ELISA
T7 construct: mature; baculovirus VLP; VP2 may be present

[8] = target: T8, Hu/NoV/Snow Mountain/GII.2/U.S. VLP (human norovirus GII.2); assay: VLP ELISA
T8 construct: mature; baculovirus VLP; VP2 may be present

[9] = target: T9, Hu/NoV/GII.4/RockvilleD1/2012/U.S. VLP (human norovirus GII.4); assay: VLP ELISA
T9 construct: mature; baculovirus VLP; VP2 may be present

[10] = target: T10, Hu/NoV/GII.1/Hawaii/1971/U.S. VLP (human norovirus GII.1); assay: VLP ELISA
T10 construct: mature; baculovirus VLP; VP2 may be present

[11] = target: T11, Hu/NoV/GII.14/M7/1999/U.S. VLP (human norovirus GII.14); assay: VLP ELISA
T11 construct: mature; baculovirus VLP; VP2 may be present

[12] = target: T12, Hu/NoV/GII.4/MD2004/2004/U.S. VLP (human norovirus GII.4); assay: VLP ELISA
T12 construct: mature; baculovirus VLP; VP2 may be present; also called MD2004 VLP

[13] = target: T13, Hu/NoV/GII.3/CHDC4031/1988/U.S. VLP (human norovirus GII.3); assay: VLP ELISA
T13 construct: mature; baculovirus VLP; VP2 may be present

[14] = target: T14, Hu/GII.6/Bethesda/2012/U.S. VLP (human norovirus GII.6); assay: VLP ELISA
T14 construct: mature; baculovirus VLP; VP2 may be present

[15] = target: T15, Hu/NoV/GII.4/HS-191/2001/U.S. VLP (human norovirus GII.4); assay: VLP ELISA
T15 construct: mature; baculovirus VLP; VP2 may be present

[16] = target: T16, Hu/NoV/GII.7/DC119/U.S. VLP (human norovirus GII.7); assay: VLP ELISA
T16 construct: mature; baculovirus VLP; VP2 may be present

[17] = target: T5, Hu/NoV/GII.4/MD145-12/1997/U.S. VLP; assay: cell-based or functional assay

B1: VHH 7.5 (VHH)
VHH: QVKLQESGGGLVQAGESLRLSCAASGSNFSINGVGWYRQAPGKQRELVAGITNGGYTSYADSVKGRFTISTDNAKNTVYLQMNSLRPEDTAVYYCNANFQIHRSGADYVRNYWGQGTQVTVSA
notes: llama VHH, MD2004 library; pHEN6, C-terminal His6 tag; also called clone 7.5
binding result [1]: no binding (tested: 100 ng/well)
binding result [2]: no binding (tested: 100 ng/well)
binding result [3]: binds
binding result [4]: binds
minimum concentration of VHH able to recognize 100 ng of VLP [5]: 0.5 ng/well
minimum concentration of VHH able to recognize 100 ng of VLP [6]: 1 ng/well
minimum concentration of VHH able to recognize 100 ng of VLP [7]: 2 ng/well
minimum concentration of VHH able to recognize 100 ng of VLP [8]: 2 ng/well
minimum concentration of VHH able to recognize 100 ng of VLP [9]: 0.5 ng/well
minimum concentration of VHH able to recognize 100 ng of VLP [10]: 1 ng/well
minimum concentration of VHH able to recognize 100 ng of VLP [11]: 1 ng/well
minimum concentration of VHH able to recognize 100 ng of VLP [12]: 0.5 ng/well
minimum concentration of VHH able to recognize 100 ng of VLP [13]: 1 ng/well
minimum concentration of VHH able to recognize 100 ng of VLP [14]: 1 ng/well
minimum concentration of VHH able to recognize 100 ng of VLP [15]: 2 ng/well
minimum concentration of VHH able to recognize 100 ng of VLP [16]: 1 ng/well
HAI titer, B Rh+ RBC [17]: 0.78 µg/mL
